Series [1] in a line: Pre-clinical toxicology: serum biochemistry parameters and body weight. The format is in vivo, BALB/c mice. How it is done: Serum biochemistry parameters in BALB/C mice treated with KLH, OXY-KLH, anti-IL-4 mAb, or anti-IL-4 mAb plus OXY-KLH. […] The values for AST (aspartate aminotransferase) were higher among groups, perhaps as a result of muscle injury due from the injections.
(§1) Male BALB/c mice were immunized with KLH, OXY-KLH, anti-IL-4 mAb, or OXY-KLH plus anti-IL-4 mAb. The OXY-KLH and the unconjugated KLH control were administered subcutaneously on days 0, 14 and 28, while the anti-IL-4 mAb was administered intraperitoneally as in EXAMPLE 2. A week after the third immunization, mice were euthanized with CO2 to perform histopathology and clinical pathology by serum chemistry. Organs were harvested and preserved in 10% formaldehyde (methanol free, ultrapure EM grade, Polysciences, Inc., Warminster, PA), and sent to the University of Minnesota School of Veterinary Medicine for histology analysis in the laboratory of Dr. Davis Seelig. Serum was collected by centrifugation at 7500 rpm for three minutes at 4° C. and collected in lithium heparin ([…], Becton, Dickinson and Co., Franklin Lakes, NJ). Frozen samples were sent to Marshfield Labs (Marshfield, WI) for the panel tests analysis.

Series [2] can be described thus: Histopathology across four treatment groups. It is filed as in vivo, BALB/c mice. The procedure:
FIG. 12. Co-administration of vaccines and an anti-IL-4 mAb is safe. Histopathology across four treatment groups. […] Occasionally, these regions of were centered on lymphocyte-rich lymphatic vessels. The severity of the lung pathology was similar across the four treatment groups.
as §1

For a further series, the system named is 6OXY-specific GC B cells. The experiment in a line: 6OXY-specific GC B cells by magnetic enrichment and flow cytometry after OXY-KLH with IL-4. The settings on record: IL-4 60,000 IU s.c. with OXY-KLH in alum, seven days after one immunization. It is filed as in vivo, mice. From the text:
FIG. 4. IL-4 increased vaccine-specific GC B cells and post-vaccination GC formation. Mice were immunized subcutaneously once with the OXY-KLH vaccine adsorbed in alum adjuvant with saline or IL-4 (60,000 IU, subcutaneously). At seven days after immunization, lymph nodes and spleens were collected for analysis of antigen-specific B cell populations. Using a two-step procedure, OXY-specific B cells were first isolated by magnetic enrichment using biotinylated oxycodone-based haptens conjugated to streptavidin (SA) conjugated to the fluorescent protein phycoerythrin (PE) or a decoy reagent, and then analyzed by multi-parameter flow cytometry. (A) 6OXY-specific CD38^neg GL7^high “committed” GC B cells; (B) 6OXY-specific CD38^+ GL7^+ “uncommitted” GC B cells; (C) Ratio of 6OXY-specific (CD38^neg) to (CD38^+) GL7^+ B cells, a measure of GC activation and B cell commitment to GC-dependent pathways; (D) 6OXY-specific IgM^high naive and memory B cells. Data shown are from two independent experiments and expressed as mean±SEM (n=10). […] Statistical symbols: *p<0.05, and […].
Mice were immunized subcutaneously once with OXY-KLH in alum adjuvant in combination with IL-4 (60,000 IU, Bio-Techne Corp., Minneapolis, MN). […]

[3] abbreviates: serum, BALB/c mice, a week after third immunization, mean ± SEM.

keyhole limpet hemocyanin [KLH] yielded a Body weight in series [1] (BALB/c mice, a week after third immunization, mean ± SEM) of 26.5 ± 0.39 g. Also, the “Protein, bilirubin, ALT, urea nitrogen, and total cholesterol versus normal range” value in series [1] (serum, BALB/C mice) was “in the normal range”. In series [1] (serum, BALB/C mice, perhaps muscle injury from the injections), the “Values for AST (aspartate aminotransferase)” value is “higher”. Further, in series [1] (setting [3]), the ALT is recorded as 71.6 ± 3.2^ U/L, the AST is 626 ± 24.7 U/L, the Cholesterol was 161 ± 10.4 mg/dL and the Total bilirubin was 0.2 ± 0.10 mg/dL. In addition, in series [1] (setting [3]), the Total protein turned out to be 5.7 ± 0.32 g/dL and the Urea nitrogen was determined as 20 ± 1.5 mg/dL. In series [2] (mouse, in vivo), the “Histopathology, kidney, heart, thymus, stomach, small intestine, large intestine, and pancreas” value is on record as “No significant pathology”; the “Histopathology, spleen” value is listed as “No significant pathology”. Further, the “Histopathology, liver (centrolobular hepatocytes)” value in series [2] (similar in severity across four treatment groups) is “occasionally moderate vacuolar change”. Besides, in series [2] (with concurrent congestion, severity similar across the four treatment groups), the “Histopathology, lungs (interstitium)” value was “mild to occasionally moderately increased numbers of inflammatory cells”.

B1: IL-4: recombinant mouse IL-4 from Bio-Techne Corp., co-administered with OXY-KLH (protein, UniProt P07750 21-140, looked up)
Interleukin-4: HIHGCDKNHLREIIGILNEVTGEGTPCTEMDVPNVLTATKNTTESELVCRASKVLRIFYLKHGKTPCLKKNSSVLMELQRLFRAFRCLDSSISCTMNESKSTSLKDFLESLKSIMQMDYS
Consider B1, for which, in the series on 6OXY-specific GC B cells, the “post-vaccination GC formation (fraction of subjects)” value was “increased” and the “vaccine-specific GC B cells” value is “increased”.

Values taken from patent publication US12070492B2, “Therapeutic compositions and methods with cytokine signaling immunomodulators” (Hennepin Healthcare Research Institute, priority 2016, dated 2024).
